Assay results reported in paper PMC3513567 (Molecular cell, 2012).
Substitutions are numbered along the chain they refer to.

T1: LEP-R[D1-D7] construct bearing the IgD mutation L370A (murine, UniProt P48356 22-839, L370A)
T1 sequence (looked up): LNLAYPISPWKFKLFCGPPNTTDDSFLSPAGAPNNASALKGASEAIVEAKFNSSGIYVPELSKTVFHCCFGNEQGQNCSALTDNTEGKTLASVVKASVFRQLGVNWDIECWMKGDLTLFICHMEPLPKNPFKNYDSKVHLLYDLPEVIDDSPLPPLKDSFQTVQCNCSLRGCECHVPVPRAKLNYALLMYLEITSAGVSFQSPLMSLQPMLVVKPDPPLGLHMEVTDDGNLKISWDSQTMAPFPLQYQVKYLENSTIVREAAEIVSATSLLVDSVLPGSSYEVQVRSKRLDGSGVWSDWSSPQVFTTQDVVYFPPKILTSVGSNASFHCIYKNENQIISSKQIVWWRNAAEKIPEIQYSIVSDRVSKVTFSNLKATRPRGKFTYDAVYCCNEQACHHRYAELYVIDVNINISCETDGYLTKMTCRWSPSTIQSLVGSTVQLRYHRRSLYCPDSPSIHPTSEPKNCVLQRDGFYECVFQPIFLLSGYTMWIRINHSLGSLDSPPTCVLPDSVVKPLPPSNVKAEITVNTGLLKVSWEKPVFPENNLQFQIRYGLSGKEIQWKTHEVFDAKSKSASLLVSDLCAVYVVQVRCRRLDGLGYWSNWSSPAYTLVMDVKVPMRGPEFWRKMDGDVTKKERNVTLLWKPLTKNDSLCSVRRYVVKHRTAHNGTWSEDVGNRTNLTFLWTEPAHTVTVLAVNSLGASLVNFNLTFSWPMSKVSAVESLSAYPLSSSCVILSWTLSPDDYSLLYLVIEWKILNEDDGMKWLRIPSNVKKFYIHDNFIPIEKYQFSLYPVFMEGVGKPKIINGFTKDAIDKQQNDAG

T2: extracellular region (domains D1-D7) of murine LEP-R (murine, UniProt P48356 22-839)
T2 sequence (looked up): T1 sequence (looked up) with A349L

B1: recombinant murine leptin (ligand, UniProt P41160 22-167, looked up)
chain: VPIQKVQDDTKTLIKTIVTRINDISHTQSVSAKQRVTGLDFIPGLHPILSLSKMDQTLAVYQQVLTSLPSQNVLQIANDLENLRDLLHLLAFSKSCSLPQTSGLQKPESLDGVLEASLYSTEVVALSRLQGSLQDILQQLDVSPEC

Columns and labels:
[1] = biological target: truncated murine LEP-R construct (D1-D5) lacking the two membrane-proximal FnIII domains (murine); experiment: ITC
Sequence of truncated murine LEP-R construct (D1-D5) lacking the two membrane-proximal FnIII domains (murine) (P48356 whole entry, the tested form may be a part): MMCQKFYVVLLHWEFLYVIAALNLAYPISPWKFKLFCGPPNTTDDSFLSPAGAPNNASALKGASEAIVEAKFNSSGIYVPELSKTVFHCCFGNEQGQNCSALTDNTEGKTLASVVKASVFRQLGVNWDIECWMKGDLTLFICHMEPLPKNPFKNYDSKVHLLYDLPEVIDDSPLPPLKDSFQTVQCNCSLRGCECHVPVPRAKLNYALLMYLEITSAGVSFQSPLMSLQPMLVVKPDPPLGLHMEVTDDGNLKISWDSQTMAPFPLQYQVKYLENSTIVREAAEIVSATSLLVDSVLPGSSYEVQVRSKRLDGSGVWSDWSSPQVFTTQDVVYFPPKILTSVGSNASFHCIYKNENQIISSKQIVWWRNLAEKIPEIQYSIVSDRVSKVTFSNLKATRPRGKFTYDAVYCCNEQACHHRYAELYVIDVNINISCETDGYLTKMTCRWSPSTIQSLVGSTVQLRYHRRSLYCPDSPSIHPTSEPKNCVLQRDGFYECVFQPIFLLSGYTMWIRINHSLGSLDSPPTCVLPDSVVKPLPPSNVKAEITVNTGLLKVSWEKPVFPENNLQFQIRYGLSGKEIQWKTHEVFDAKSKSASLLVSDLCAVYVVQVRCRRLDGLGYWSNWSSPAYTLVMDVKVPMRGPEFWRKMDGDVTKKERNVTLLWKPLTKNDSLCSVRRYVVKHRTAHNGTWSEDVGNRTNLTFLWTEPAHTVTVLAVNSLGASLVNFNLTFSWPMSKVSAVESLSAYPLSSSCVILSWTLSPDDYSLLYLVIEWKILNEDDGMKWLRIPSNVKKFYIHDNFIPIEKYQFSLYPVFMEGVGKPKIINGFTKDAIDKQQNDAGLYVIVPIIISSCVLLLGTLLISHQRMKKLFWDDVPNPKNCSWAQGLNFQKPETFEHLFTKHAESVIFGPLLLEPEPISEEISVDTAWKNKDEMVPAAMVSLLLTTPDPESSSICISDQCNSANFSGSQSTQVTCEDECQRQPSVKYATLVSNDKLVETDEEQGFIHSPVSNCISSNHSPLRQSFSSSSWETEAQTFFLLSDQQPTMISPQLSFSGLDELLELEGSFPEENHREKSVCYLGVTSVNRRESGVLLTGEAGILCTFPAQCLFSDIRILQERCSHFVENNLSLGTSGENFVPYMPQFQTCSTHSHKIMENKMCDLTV

[2] = biological target: T1, LEP-R[D1-D7] construct bearing the IgD …; experiment: negative-stain single-particle electron microscopy
[3] = biological target: T2, extracellular region (domains D1-D7) of …; experiment: ITC

Molecule | Kd [1] | stoichiometry N (receptor:ligand) [1] | binding result [2] | stoichiometry N [3]
recombinant murine leptin (from UniProt P41160 22-167) (ligand) | 17 nM | 1 |  | 
B1 |  |  | binds | ~1 receptor:ligand
